For 20 molecules, OD value results are on record in patent US20260144882A1 (BIO THERA SOLUTIONS, published 2026).

To fix the notation:
B1: 10F4-1H1 scFv (scFv, V domains shown)
VH: EVQLVESGGGLVQPGGSLRLSCAASGYSFGNFDMSWVRQAPGKGLEWVSGIKQYKGYTSYADSVKGRFTISRDNSKNTLYLQMNSLRAEDTAVYYCAREYSDVVDYVSVRTPLDYWGQGTLVTVSS
VL: DIQMTQSPSSLSASVGDRVTITCRASQGISSYLAWYQQKPGKAPKLLIYAASSLQSGVPSRFSGSGSGTDFTLTISSLQPEDFATYYCQQHYTTPPTFGQGTKVEIKR
notes: phage clone supernatant
B2: 10F4-1B9 scFv (scFv, V domains shown)
VH: EVQLVESGGGLVQPGGSLRLSCAASGFNFDNYYMSWVRQAPGKGLEWVSSIYQTDASIFYADSVKGRFTISRDNSKNTLYLQMNSLRAEDTAVYYCAREYSDVVDYVSVRTPLDYWGQGTLVTVSS
VL: DIQMTQSPSSLSASVGDRVTITCRASQGISSYLAWYQQKPGKAPKLLIYAASSLQSGVPSRFSGSGSGTDFTLTISSLQPEDFATYYCQQHYTTPPTFGQGTKVEIKR
notes: phage clone supernatant
B3: 10F4-1H6 scFv (scFv, V domains shown)
VH: EVQLVESGGGLVQPGGSLRLSCAASGFNFYDYDMSWVRQAPGKGLEWVSGIKTHSGGNGYADSVKGRFTISRDNSKNTLYLQMNSLRAEDTAVYYCAREYSDVVDYVSVRTPLDYWGQGTLVTVSS
VL: DIQMTQSPSSLSASVGDRVTITCRASQGISSYLAWYQQKPGKAPKLLIYAASSLQSGVPSRFSGSGSGTDFTLTISSLQPEDFATYYCQQHYTTPPTFGQGTKVEIKR
notes: phage clone supernatant
B4: 10F4-2F11 scFv (scFv, V domains shown)
VH: EVQLVESGGGLVQPGGSLRLSCAASGYNFTSYDMSWVRQAPGKGLEWVSGIKTGGGSARYADSVKGRFTISRDNSKNTLYLQMNSLRAEDTAVYYCAREYSDVVDYVSVRTPLDYWGQGTLVTVSS
VL: DIQMTQSPSSLSASVGDRVTITCRASQGISSYLAWYQQKPGKAPKLLIYAASSLQSGVPSRFSGSGSGTDFTLTISSLQPEDFATYYCQQHYTTPPTFGQGTKVEIKR
notes: phage clone supernatant
B5: 10F4-2H5 scFv (scFv, V domains shown)
VH: EVQLVESGGGLVQPGGSLRLSCAASGYIFTNYWMSWVRQAPGKGLEWVSSIDQGSGNIFYADSVKGRFTISRDNSKNTLYLQMNSLRAEDTAVYYCAREYSDVVDYVSVRTPLDYWGQGTLVTVSS
VL: DIQMTQSPSSLSASVGDRVTITCRASQGISSYLAWYQQKPGKAPKLLIYAASSLQSGVPSRFSGSGSGTDFTLTISSLQPEDFATYYCQQHYTTPPTFGQGTKVEIKR
notes: phage clone supernatant
B6: 10F4-2C4 scFv (scFv, V domains shown)
VH: EVQLVESGGGLVQPGGSLRLSCAASGYSFGDYWMSWVRQAPGKGLEWVSVIDSGSGNKRYADSVKGRFTISRDNSKNTLYLQMNSLRAEDTAVYYCAREYSDVVDYVSVRTPLDYWGQGTLVTVSS
VL: DIQMTQSPSSLSASVGDRVTITCRASQGISSYLAWYQQKPGKAPKLLIYAASSLQSGVPSRFSGSGSGTDFTLTISSLQPEDFATYYCQQHYTTPPTFGQGTKVEIKR
notes: phage clone supernatant
B7: 10F4-2E4 scFv (scFv, V domains shown)
VH: EVQLVESGGGLVQPGGSLRLSCAASGYTFDSYWMSWVRQAPGKGLEWVSAIDGTDSVAYYADSVKGRFTISRDNSKNTLYLQMNSLRAEDTAVYYCAREYSDVVDYVSVRTPLDYWGQGTLVTVSS
VL: DIQMTQSPSSLSASVGDRVTITCRASQGISSYLAWYQQKPGKAPKLLIYAASSLQSGVPSRFSGSGSGTDFTLTISSLQPEDFATYYCQQHYTTPPTFGQGTKVEIKR
notes: phage clone supernatant
B8: 10F4-1H4 scFv (scFv, V domains shown)
VH: EVQLVESGGGLVQPGGSLRLSCAASGFNFTNYWMSWVRQAPGKGLEWVSAISGTGGYTYYADSVKGRFTISRDNSKNTLYLQMNSLRAEDTAVYYCAREYSDVVDYVSVRTPLDYWGQGTLVTVSS
VL: DIQMTQSPSSLSASVGDRVTITCRASQGISSYLAWYQQKPGKAPKLLIYAASSLQSGVPSRFSGSGSGTDFTLTISSLQPEDFATYYCQQHYTTPPTFGQGTKVEIKR
notes: phage clone supernatant
B9: 10F4-2E6 scFv (scFv, V domains shown)
VH: EVQLVESGGGLVQPGGSLRLSCAASGFSFGDYWMSWVRQAPGKGLEWVSAIDQGKATSFYADSVKGRFTISRDNSKNTLYLQMNSLRAEDTAVYYCAREYSDVVDYVSVRTPLDYWGQGTLVTVSS
VL: DIQMTQSPSSLSASVGDRVTITCRASQGISSYLAWYQQKPGKAPKLLIYAASSLQSGVPSRFSGSGSGTDFTLTISSLQPEDFATYYCQQHYTTPPTFGQGTKVEIKR
notes: phage clone supernatant
B10: 10F4-2E1 scFv (scFv, V domains shown)
VH: EVQLVESGGGLVQPGGSLRLSCAASGFTFTTYDMSWVRQAPGKGLEWVSGIKYSKYYTHYADSVKGRFTISRDNSKNTLYLQMNSLRAEDTAVYYCAREYSDVVDYVSVRTPLDYWGQGTLVTVSS
VL: DIQMTQSPSSLSASVGDRVTITCRASQGISSYLAWYQQKPGKAPKLLIYAASSLQSGVPSRFSGSGSGTDFTLTISSLQPEDFATYYCQQHYTTPPTFGQGTKVEIKR
notes: phage clone supernatant
B11: 10F4-1H11 scFv (scFv, V domains shown)
VH: EVQLVESGGGLVQPGGSLRLSCAASGYTFTGFWMSWVRQAPGKGLEWVSSISPDSGTKHYADSVKGRFTISRDNSKNTLYLQMNSLRAEDTAVYYCAREYSDVVDYVSVRTPLDYWGQGTLVTVSS
VL: DIQMTQSPSSLSASVGDRVTITCRASQGISSYLAWYQQKPGKAPKLLIYAASSLQSGVPSRFSGSGSGTDFTLTISSLQPEDFATYYCQQHYTTPPTFGQGTKVEIKR
notes: phage clone supernatant
B12: 10F4-5 scFv (scFv, V domains shown)
VH: EVQLVESGGGLVQPGGSLRLSCAASGFIFDGYDMSWVRQAPGKGLEWVSVIKDHGGYKFYADSVKGRFTISRDNSKNTLYLQMNSLRAEDTAVYYCAREYSDVVDYVSVRTPLDYWGQGTLVTVSS
VL: DIQMTQSPSSLSASVGDRVTITCRASQGISSYLAWYQQKPGKAPKLLIYAASSLQSGVPSRFSGSGSGTDFTLTISSLQPEDFATYYCQQHYTTPPTFGQGTKVEIKR
notes: phage clone supernatant
B13: 10F4-3 scFv (scFv, V domains shown)
VH: EVQLVESGGGLVQPGGSLRLSCAASGFSFGDFAMSWVRQAPGKGLEWVSVIDGHTAYNSYADSVKGRFTISRDNSKNTLYLQMNSLRAEDTAVYYCAREYSDVVDYVSVRTPLDYWGQGTLVTVSS
VL: DIQMTQSPSSLSASVGDRVTITCRASQGISSYLAWYQQKPGKAPKLLIYAASSLQSGVPSRFSGSGSGTDFTLTISSLQPEDFATYYCQQHYTTPPTFGQGTKVEIKR
notes: phage clone supernatant
B14: 10F4-2C6 scFv (scFv, V domains shown)
VH: EVQLVESGGGLVQPGGSLRLSCAASGFNFGGFDMSWVRQAPGKGLEWVSGIKQYKGYTSYADSVKGRFTISRDNSKNTLYLQMNSLRAEDTAVYYCAREYSDVVDYVSVRTPLDYWGQGTLVTVSS
VL: DIQMTQSPSSLSASVGDRVTITCRASQGISSYLAWYQQKPGKAPKLLIYAASSLQSGVPSRFSGSGSGTDFTLTISSLQPEDFATYYCQQHYTTPPTFGQGTKVEIKR
notes: phage clone supernatant
B15: 10F4-2G2 scFv (scFv, V domains shown)
VH: EVQLVESGGGLVQPGGSLRLSCAASGYNFTDYDMSWVRQAPGKGLEWVSSIIASGSGNYYADSVKGRFTISRDNSKNTLYLQMNSLRAEDTAVYYCAREYSDVVDYVSVRTPLDYWGQGTLVTVSS
VL: DIQMTQSPSSLSASVGDRVTITCRASQGISSYLAWYQQKPGKAPKLLIYAASSLQSGVPSRFSGSGSGTDFTLTISSLQPEDFATYYCQQHYTTPPTFGQGTKVEIKR
notes: phage clone supernatant
B16: 10F4-2E8 scFv (scFv, V domains shown)
VH: EVQLVESGGGLVQPGGSLRLSCAASGFNFGNYDMSWVRQAPGKGLEWVSSIIPHGDYSFYADSVKGRFTISRDNSKNTLYLQMNSLRAEDTAVYYCAREYSDVVDYVSVRTPLDYWGQGTLVTVSS
VL: DIQMTQSPSSLSASVGDRVTITCRASQGISSYLAWYQQKPGKAPKLLIYAASSLQSGVPSRFSGSGSGTDFTLTISSLQPEDFATYYCQQHYTTPPTFGQGTKVEIKR
notes: phage clone supernatant
B17: 10F4-2A1 scFv (scFv, V domains shown)
VH: EVQLVESGGGLVQPGGSLRLSCAASGYTFDDYDMSWVRQAPGKGLEWVSGIKAHSDNKRYADSVKGRFTISRDNSKNTLYLQMNSLRAEDTAVYYCAREYSDVVDYVSVRTPLDYWGQGTLVTVSS
VL: DIQMTQSPSSLSASVGDRVTITCRASQGISSYLAWYQQKPGKAPKLLIYAASSLQSGVPSRFSGSGSGTDFTLTISSLQPEDFATYYCQQHYTTPPTFGQGTKVEIKR
notes: phage clone supernatant
B18: 10F4-2C12 scFv (scFv, V domains shown)
VH: EVQLVESGGGLVQPGGSLRLSCAASGYNFGDYSMSWVRQAPGKGLEWVSVIDTTSAYTRYADSVKGRFTISRDNSKNTLYLQMNSLRAEDTAVYYCAREYSDVVDYVSVRTPLDYWGQGTLVTVSS
VL: DIQMTQSPSSLSASVGDRVTITCRASQGISSYLAWYQQKPGKAPKLLIYAASSLQSGVPSRFSGSGSGTDFTLTISSLQPEDFATYYCQQHYTTPPTFGQGTKVEIKR
notes: phage clone supernatant
B19: 10F4-1H7 scFv (scFv, V domains shown)
VH: EVQLVESGGGLVQPGGSLRLSCAASGYSFDTYDMSWVRQAPGKGLEWVSGIKQYKGYTSYADSVKGRFTISRDNSKNTLYLQMNSLRAEDTAVYYCAREYSDVVDYVSVRTPLDYWGQGTLVTVSS
VL: DIQMTQSPSSLSASVGDRVTITCRASQGISSYLAWYQQKPGKAPKLLIYAASSLQSGVPSRFSGSGSGTDFTLTISSLQPEDFATYYCQQHYTTPPTFGQGTKVEIKR
notes: phage clone supernatant
B20: 10F4-2A5 scFv (scFv, V domains shown)
VH: EVQLVESGGGLVQPGGSLRLSCAASGYSFTDYDMSWVRQAPGKGLEWVSGIKTYKSDARYADSVKGRFTISRDNSKNTLYLQMNSLRAEDTAVYYCAREYSDVVDYVSVRTPLDYWGQGTLVTVSS
VL: DIQMTQSPSSLSASVGDRVTITCRASQGISSYLAWYQQKPGKAPKLLIYAASSLQSGVPSRFSGSGSGTDFTLTISSLQPEDFATYYCQQHYTTPPTFGQGTKVEIKR
notes: phage clone supernatant

The experiment concerns the target T1, human Nectin-4 extracellular antigen hNectin-4-His (human, UniProt Q96NY8 32-349).
T1 construct: C-terminal 8xHis tag included
T1 sequence: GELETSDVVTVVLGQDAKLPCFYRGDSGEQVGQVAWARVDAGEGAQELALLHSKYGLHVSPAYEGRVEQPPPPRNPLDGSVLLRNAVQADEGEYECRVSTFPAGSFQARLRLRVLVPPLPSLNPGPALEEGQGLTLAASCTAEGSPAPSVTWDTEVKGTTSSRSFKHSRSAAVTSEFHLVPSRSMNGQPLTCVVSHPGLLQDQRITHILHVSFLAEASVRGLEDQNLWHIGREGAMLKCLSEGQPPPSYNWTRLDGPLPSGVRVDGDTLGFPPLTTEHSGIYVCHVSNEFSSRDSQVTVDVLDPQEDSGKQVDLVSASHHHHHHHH
In words: ELISA, phage scFv supernatant 1:50.
The molecule B1 had an OD value of 1.61 OD.
With B2 the figure was 1.5 OD.
With B3 the figure was 1.48 OD; with B4, 1.46 OD.
B5 gave an OD value of 1.44 OD.
The value for B6 was 1.53 OD.
Take B7: the OD value was determined as 1.43 OD.
With B8 the figure was 1.38 OD; with B9, 1.45 OD; with B10, 1.6 OD.
With B11 the figure was 1.56 OD; with B12, 1.31 OD.
The value for B13 was 1.32 OD; that for B14 was 1.52 OD; that for B15 was 1.49 OD.
Take B16: the OD value came out at 1.38 OD.
With B17 the figure was 1.76 OD.
The value for B18 was 1.45 OD; that for B19 was 1.49 OD; that for B20 was 1.59 OD.
